Test results: patent US20210324359A1, “USE OF GRAM-NEGATIVE LYSIN-ANTIMICROBIAL PEPTIDE (AMP) POLYPEPTIDE CONSTRUCTS IN TREATING ENDOCARDITIS” (priority 2020, published 2021)
Where two headings read alike, the source gives them in different places.

Legend:
Staphylococcus aureus = experiment: Daptomycin MIC with […], positive control (Table 10); type: cell-based; details: for fold increase in MIC with SURVANTA: Staphylococcus aureus
Method: As a positive control, the impact of […] ® on daptomycin (DAP) activity against Staphylococcus aureus was also tested.

[1] = test system: P. aeruginosa isolate CFS-1292; experiment: MIC in CAA supplemented with a range of […] concentrations (Table 10); type: cell-based, Pseudomonas aeruginosa
[2] = test system: carbapenem-resistant P. aeruginosa strains; experiment: Resensitization of carbapenem-resistant strains, combinations with imipenem or meropenem (Tables 18-22); type: cell-based, Pseudomonas aeruginosa
Method: Such resensitization may be determined by combining the present lysins or lysin-AMP polypeptide constructs with an antibiotic in a checkerboard assay as described herein. Antibiotic-resistant bacteria, such as carbapenem-resistant P. aeruginosa, are added to the lysin or lysin-AMP polypeptide construct combination. […] See Clinical and Laboratory Standards Institute (CLSI), CLSI. […] M100 Performance Standards for Antimicrobial Susceptibility Testing; 29th Edition. Clinical and Laboratory Standards Institute, Wayne, Pa., which is herein incorporated by reference in its entirety.
Up to seven carbapenem-resistant isolates were assessed. […] See Clinical and Laboratory Standards Institute (CLSI), CLSI. […] M100 Performance Standards for Antimicrobial Susceptibility Testing; 29th Edition. Clinical and Laboratory Standards Institute, Wayne, Pa.

[3] = test system: Pseudomonas aeruginosa strain CFS-1292 (meropenem resistant); details: for Fold Increase (MIC) in presence of cations: CFS-1292
Method: The activity of selected GN lysins and constructs in the presence of divalent cations was evaluated, and the impact of divalent cations at physiological concentrations was examined in the MIC assay format.

In the case of daptomycin, the “fold increase in MIC with SURVANTA” value (Staphylococcus aureus; 0.09% SURVANTA) is reported as 32 fold, the “fold increase in MIC with SURVANTA” value (Staphylococcus aureus; 0.19% SURVANTA) is reported as 32 fold and the “fold increase in MIC with SURVANTA” value (Staphylococcus aureus; 1.56% SURVANTA) is reported as 128 fold. The “fold increase in MIC with SURVANTA” value (Staphylococcus aureus; 3.15% SURVANTA) was 128 fold and the “inhibition by pulmonary surfactant” value (Staphylococcus aureus; SURVANTA 0.09-[…], S. aureus) was “inhibitory to the activity of DAP”.

B1: GN123: lysin obtained from Pseudomonas phage PhiPA3 (SEQ ID NO: 173) (protein)
chain: MTLLKKGDKGDAVKQLQQKLKDLGYTLGVDGNFGNGTDTVVRSFQTKMKLSVDGVVGNGTMSTIDSTLAGIKAWKTSVPFPATNKSRAMAMPTLTEIGRLTNVDPKLLATFCSIESAFDYTAKPYKPDGTVYSSAEGWFQFLDATWDDEVRKHGKQYSFPVDPGRSLRKDPRANGLMGAEFLKGNAAILRPVLGHEPSDTDLYLAHFMGAGGAKQFLMADQNKLAAELFPGPAKANPNIFYKSGNIARTLAEVYAVLDAKVAKHRA
modifications: Pseudomonas phage PhiPA3
With B1 the “fold increase in MIC with SURVANTA” value ([1]; 0.09% SURVANTA) was 1 fold, the “fold increase in MIC with SURVANTA” value ([1]; 0.19% SURVANTA) was 1 fold and the “fold increase in MIC with SURVANTA” value ([1]; 1.56% SURVANTA) was 1 fold. The “fold increase in MIC with SURVANTA” value ([1]; 3.15% SURVANTA) was 2 fold, the “resensitization to carbapenems in synergistic combinations” value ([2]; imipenem (IPM) and meropenem (MEM), carbapenem-resistant isolates) was “reductions of IPM and MEM MICS to below breakpoint values” and the “lysin MIC, Combination” value ([2]; in combination with imipenem, isolate PA19) was 0.125 µg/mL. For the same molecule, the “lysin MIC, Combination” value ([2]; in combination with imipenem, isolate PA20) was 2 µg/mL, the “lysin MIC, Combination” value ([2]; in combination with imipenem, isolate PA21) was 1 µg/mL and the “lysin MIC, Combination” value ([2]; in combination with imipenem, isolate PA22) was 1 µg/mL. For the same molecule, the “lysin MIC, Combination” value ([2]; in combination with imipenem, isolate PA23) was 2 µg/mL, the “lysin MIC, Combination” value ([2]; in combination with imipenem, isolate PA24) was 2 µg/mL and the “lysin MIC, Combination” value ([2]; in combination with imipenem, isolate WC-452) was 2 µg/mL. For the same molecule, the “lysin MIC, Combination” value ([2]; in combination with meropenem, isolate PA19) was 0.25 µg/mL, the “lysin MIC, Combination” value ([2]; in combination with meropenem, isolate PA20) was 1 µg/mL and the “lysin MIC, Combination” value ([2]; in combination with meropenem, isolate PA21) was 1 µg/mL. The “lysin MIC, Combination” value ([2]; in combination with meropenem, isolate PA22) was 1 µg/mL, the “lysin MIC, Combination” value ([2]; in combination with meropenem, isolate PA23) was 1 µg/mL and the “lysin MIC, Combination” value ([2]; in combination with meropenem, isolate PA24) was 0.5 µg/mL. The “lysin MIC, Combination” value ([2]; in combination with meropenem, isolate WC-452) was 1 µg/mL, the “MIC, Alone” value ([2]; isolate PA19) was 8 µg/mL and the “MIC, Alone” value ([2]; isolate PA20) was 16 µg/mL. For the same molecule, the “MIC, Alone” value ([2]; isolate PA21) was 8 µg/mL, the “MIC, Alone” value ([2]; isolate PA22) was 16 µg/mL and the “MIC, Alone” value ([2]; isolate PA23) was 8 µg/mL. For the same molecule, the “MIC, Alone” value ([2]; isolate PA24) was 16 µg/mL, the “MIC, Alone” value ([2]; isolate WC-452) was 16 µg/mL and the FICI ([2]; lysin + imipenem, isolate PA19) was 0.03. For the same molecule, the FICI ([2]; lysin + imipenem, isolate PA20) was 0.188, the FICI ([2]; lysin + imipenem, isolate PA21) was 0.141 and the FICI ([2]; lysin + imipenem, isolate PA22) was 0.188. The FICI ([2]; lysin + imipenem, isolate PA23) was 0.281, the FICI ([2]; lysin + imipenem, isolate PA24) was 0.188 and the FICI ([2]; lysin + imipenem, isolate WC-452) was 0.188. It also gave an FICI ([2]; lysin + meropenem, isolate PA19) of 0.046, an FICI ([2]; lysin + meropenem, isolate PA20) of 0.094 and an FICI ([2]; lysin + meropenem, isolate PA21) of 0.156. For the same molecule, the FICI ([2]; lysin + meropenem, isolate PA22) was 0.125, the FICI ([2]; lysin + meropenem, isolate PA23) was 0.156 and the FICI ([2]; lysin + meropenem, isolate PA24) was 0.094. The FICI ([2]; lysin + meropenem, isolate WC-452) was 0.125, the “Fold Increase (MIC) in presence of cations” value (“Fold Increase (MIC)” for short) ([3]; 25% CAA + […] CaCl2 (high)) was 1 fold and the “Fold Increase (MIC)” value ([3]; 25% CAA + […] CaCl2 (low)) was 1 fold. For the same molecule, the “Fold Increase (MIC)” value ([3]; 25% CAA + […] CaCl2 (medium)) was 1 fold, the “Fold Increase (MIC)” value ([3]; 25% CAA + […] CaCl2 and […] MgCl2) was 1 fold and the “Fold Increase (MIC)” value ([3]; 25% CAA + […] MgCl2 (high)) was 1 fold. For the same molecule, the “Fold Increase (MIC)” value ([3]; 25% CAA + […] MgCl2 (low)) was 1 fold, the “Fold Increase (MIC)” value ([3]; 25% CAA + […] MgCl2 (medium)) was 1 fold and the “MIC in 25% CAA” value ([3]; strain CFS-1292, no added cations) was 2 µg/mL.
